In patent US8540999B2, “Allergenic proteins and peptides from Japanese cedar pollen” (Merck Patent GmbH, priority 1991, dated 2013):

Experiments:
[1] = tested on: Cry j allergic patient plasma IgE; test: Cry j I peptide screen, direct ELISA for IgE binding (Example 12); design: species or system human; conditions: plasma pools PHP-A and PHP-D, FIGS. 22 and 23
Description: To analyze IgE reactivity to the selected peptides discussed in example 11 and shown in FIG. 20, a direct ELISA format was used. ELISA wells were coated with the selected peptides derived from Cry j I and then assayed for IgE binding. FIGS. 22 and 23 are graphs of these binding results using two different pools of Cry j allergic patient plasma. Patient plasma pool A (denoted PHP-A) (FIG. 22) was formulated by mixing equal volumes of plasma from 22 patients that were all shown to be positive for direct IgE binding to native purified Cry j I by ELISA. The second pool (PHP-D) (FIG. 23) was formulated by the combination of equal plasma volumes from 8 patients that had IgE binding by direct ELISA to both native and denatured purified Cry j I. This pool was generated to increase the chance of detecting reactivity towards peptides. […] There was no detectable IgE binding reactivity to any of the peptides at any of the plasma concentrations used. To control for the presence of peptide coating the wells, mouse polyclonal antisera was generated to the peptides. […] The results of these assays are shown in FIG. 24, and indicate that peptides were coating the wells.

[2] = tested on: Cry j I reactive T cells; test: T cell proliferation assay, Cry j I primed T cell lines, modified peptides (Example 11); type: cell-based, human; conditions: panel of thirty-nine patients, FIG. 21
Method: Long term T cell lines were established by stimulation of 2×10^6 PBL/ml in bulk cultures of complete medium (RPMI-1640, 2 mM L-glutamine, 100 U/ml penicillin/streptomycin, 5×10^−5M 2-mercaptoethanol, and 10 mM HEPES supplemented with 5% heat inactivated human AB serum) with 20 μg/ml of partially purified native Cry j I (75% purity containing three bands similar to the three bands in FIG. 2) for 6 days at 37° C. in a humidified 5% CO2 incubator to select for Cry j I reactive T cells. This amount of priming antigen was determined to be optimal for the activation of T cells from most cedar pollen allergic patients. Viable cells were purified by LSM centrifugation and cultured in complete medium supplemented with 5 units recombinant human IL-2/ml and 5 units recombinant human IL4/ml for up to three weeks until the cells no longer responded to lymphokines and were considered “rested”. The ability of the T cells to proliferate to selected Cry j I peptides, partially purified Cry j I, affinity purified Cry j I, or positive (PHA) controls or negative controls (medium only) was then assessed. […]
The maximum response in a titration of each peptide is expressed as the stimulation index (S.I.). […]

[3] = tested on: allergic patient IgE; test: Direct ELISA, IgE binding to rCry j I and Cry j I peptides (Example 8); design: species or system human; conditions: PHP (15 patients), FIG. 15
Method: The recombinant Cry j I protein (rCry j I), expressed in bacteria and then purified (as described in Example 5), has been examined for IgE reactivity. The first method applied to this examination was direct ELISA where wells were coated with the recombinant Cry j I and IgE binding was assayed on individual patients. FIG. 9 is the graphic representation of this direct ELISA.
To analyze IgE reactivity to selected Cry j I peptides a direct ELISA format was used. ELSIA wells were coated with 25 peptides derived from Cry j I and assayed for IgE binding. FIG. 15a and 15b are graphs of these binding results using PHP (15 patients) as the cedar pollen allergic IgE source. This pool of plasma was formulated for enrichment of IgE that could bind to denatured SPE (as determined by direct ELISA) and therefore increase the chance of reactivity toward the peptides.

[4] = tested on: patients' plasma IgE; test: Direct binding assay of IgE to Cry j I, Cry j II and recombinant Cry j II (Example 18); design: species or system human
Method: Costar assay plates were coated with Cry j I or Cry j II at 2 μg/mL or recombinant Cry j II preparation at 10 μg/mL (approximately 20% pure) in a volume of 50 μL overnight at 4° C. The coating antigens were removed and the wells were blocked with 0.5% gelatin, PVP (polyvinyl pyrolidine) 1 mg/mL in PBS, 200 μL/well for 2 hours at room temperature. The anti-Cry j I monoclonal antibody, 4B11, was serially diluted in PBS-Tween 20 starting at a 1:1000 dilution. The human plasma were serially diluted in PBS-Tween at a starting dilution of 1:2. For this set 23 plasma samples from patients symptomatic for Japanese cedar pollen allergy chosen for IgE binding analysis. The first antibody incubation proceeded overnight at 4° C. Following three washes with PBS-Tween the second antibodies were added (biotinylated goat anti-mouse Ig or goat anti-human IgE both at 1:2000) and incubated for two hours at room temperature at 100 μL/well. After washing 3 times, […]. This solution was removed and streptavidin-HRPO diluted to 1:10,000, was added at 100 μL/well. The color was allowed to develop for 2-5 minutes. The reaction was stopped by the addition of 100 μL/well of 1M phosphoric acid. Plates were read on a Microplate IL310 Autoreader (Biotek Instruments, Winooski, Vt.) with a 450 nm filter. The absorbance levels of duplicate wells were averaged. A positive binding result, indicated by a plus sign is determined to be a reading of two-fold or greater above background (no first antibody) at the second dilution of plasma ([…]).

IgE binding, direct ELISA [1]: direct binding | IgE binding, direct ELISA [3]: only specific IgE detected | plasma IgE binding response ([4]; patient #1034): no detectable binding | plasma IgE binding response ([4]; patient plasma samples, FIGS. 31-33): variable response
B1: purified native Cry j I: major allergen of Japanese cedar pollen, biochemically purified in the native form (protein)
chain: DNPIDSCWRGDSNWAQNRMKLADCAVGFGSSTMGGKGGDLYTVTNSDDDPVNPAPGTLRYGATRDRPLWIIFSGNMNIKLKMPMYIAGYKTFDGRGAQVYIGNGGPCVFIKRVSNVIIHGLYLYGCSTSVLGNVLINESFGVEPVHPQDGDALTLRTATNIWIDHNSFSNSSDGLVDVTLTSTGVTISNNLFFNHHKVMLLGHDDAYSDDKSMKVTVAFNQFGPNCGQRMPRARYGLVHVANNNYDPWTIYAIGGSSNPTILSEGNSFTAPNESYKKQVTIRIGCKTSSSCSNWVWQSTQDVFYNGAYFVSSGKYEGGNIYTKKEAFNVENGNATPQLTKNAGVLTCSLSKRC
T cell line response [2]: All but one of the thirty-nine T cell lines responded
